1 molecule from article PMC3265611 can be followed below.

The data set deals with T1, Flag-yTdp1 H432N (Saccharomyces cerevisiae, UniProt P38319 1-544, H432N).
T1 sequence: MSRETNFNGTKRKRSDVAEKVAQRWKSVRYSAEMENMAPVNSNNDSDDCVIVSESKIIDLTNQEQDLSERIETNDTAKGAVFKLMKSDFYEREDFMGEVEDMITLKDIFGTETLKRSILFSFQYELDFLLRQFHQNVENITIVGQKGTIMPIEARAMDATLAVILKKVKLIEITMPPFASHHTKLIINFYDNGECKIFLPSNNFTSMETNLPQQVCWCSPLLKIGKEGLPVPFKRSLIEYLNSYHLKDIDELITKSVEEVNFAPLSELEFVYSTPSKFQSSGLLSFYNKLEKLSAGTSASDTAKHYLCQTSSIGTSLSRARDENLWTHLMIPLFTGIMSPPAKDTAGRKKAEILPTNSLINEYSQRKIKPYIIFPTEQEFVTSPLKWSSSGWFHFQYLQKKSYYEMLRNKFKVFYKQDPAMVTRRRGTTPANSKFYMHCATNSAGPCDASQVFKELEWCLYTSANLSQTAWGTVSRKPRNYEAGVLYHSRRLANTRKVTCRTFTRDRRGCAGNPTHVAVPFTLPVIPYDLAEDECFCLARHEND
The experiment in a line: EMSA. For orientation: Mobility shift assays separate free from complexed probe on a gel.

B1: 3'-pY 14-mer substrate (ssDNA)
DNA: GATCTAAAAGACTT
modifications: 3' phosphotyrosine
In the case of B1, the binding result is given as “no binding”.
